Experimental findings from patent EP4745156A1 are described below.

In general, Kd refers to the equilibrium constant for the complex coming apart. The koff is a measure of how fast the partners let go of each other. For orientation: kon means a measure of how fast the partners come together.

Assay [1] concerns the target His-tagged canine IL-31 (interleukin 31) recombinant protein (canine). Nature of the assay: cell-based or functional assay.
The target is the same in assay [2]. Nature of the assay: BLI (Gator), biotinylated antibody on streptavidin probe, canine IL-31 as analyte.

Numbering of substitutions follows the chain as printed.

B1: 7475-mHvKv-canIgGB (antibody, V domains shown)
VH: EVKLVESGEGLVKPGGSLKLSCAASGFTFSSYAMSWVRQTPEKRLEWVAYISNGGDYIFYADTVKGRFTISRDNARNTLYLQMSSLKSEDTAMYYCTRRGHYNTSSYWYFDVWGTGTTVTVSS
VL: DIVMTQSPKSMSMSVGERVTLSCKASENVGTYVSWYQQKPEQSPKLLIYGASNRYTGVPDRFTGSGSATDFTLTISSVQAEDLADYHCGQSYSYPPTFGAGTKLELKR
Consider B1, for which the pSTAT IC50 (µg/mL) in assay [1] worked out at 6.7 µg/mL. In assay [2], the equilibrium dissociation constant (Kd) came to 1.01 nM, the off-rate (koff) turned out to be 0.000251 s⁻¹ and the kon turned out to be 250000 M⁻¹ s⁻¹.

B2: 6465-mHvKv-canIgGB (antibody, V domains shown)
VH: EVQLQQSGAELVRPGASVRLSCKASGYSFTNYYLYWVKQRPGQGLEWIGELNPRNGGTNLNAKFKTKATLTVDKSSNTAYMRLSSLTSEDSAVYYCTRGGTTVVVRDVMDFWGQGTSVTVSS
VL: DIELTQSPASLAVSLGQRATISCRASESVDSYGNSFMHWYQQKPGQPPKLLIYRASNLESGIPARFSGSGSRTDFTLTINPVEADDVATYYCQQSNEDPYTFGGGTKLEIKR
With B2, the pSTAT IC50 (µg/mL) in assay [1] was determined as 7.1 µg/mL. In addition, in assay [2], the dissociation constant (Kd) was 2.09 nM, the koff was determined as 0.00106 s⁻¹ and the on-rate (kon) was 507000 M⁻¹ s⁻¹.

B3: 6465-H3K3-canIgGB (antibody, V domains shown)
VH: EVQLVESGGDLVKPGGSLRLSCVASGYSFTNYYLYWVRQAPGKGLEWVAELNPRNGGTNLNAKFKTRFTISRDNAKNMAYLQMNSLRAEDTAVYYCTRGGTTVVVRDVMDFWGQGTLVTVSS
VL: DIVMTQTPLSLSVSPGEPASISCRASESVDSYGNSFMHWYRQKPGQSPQLLIYRASNLESGVPDRFSGSGSGTDFTLRISRVEADDAGVYYCQQSNEDPYTFGQGTKLEIKR
Turning to B3, the pSTAT IC50 (µg/mL) in assay [1] was found to be 7.2 µg/mL. In assay [2], the Kd was determined as 2.02 nM, the koff worked out at 0.00164 s⁻¹ and the kon worked out at 812000 M⁻¹ s⁻¹.

B4: 6465-H1K1-canIgGB (antibody, V domains shown)
VH: B3 VH with A49G, R72V, N74K
VL: EIVLTQTPLSLAVTPGELATISCRASESVDSYGNSFMHWYLQKPGQTPRLLIYRASNLESGVSDRFSGSGSRTDFTLKISRVEAEDVGVYYCQQSNEDPYTFGQGTKLEIKR
Consider B4, for which, in assay [1], the pSTAT IC50 (µg/mL) turned out to be 7.5 µg/mL. In addition, in assay [2], the Kd worked out at 3.21 nM, the off-rate (koff) was determined as 0.000979 s⁻¹ and the on-rate constant (kon) stood at 305000 M⁻¹ s⁻¹.

B5: B2-H1K1-canIgGB (antibody, V domains shown)
VH: EVQLVESGGDLVKPGGSLRLSCVASGFTFSDAWMDWVRQAPGKGLQWLAEIRSRAESHATYYAESVKGRFTISRDDAKNTVYLQMNSLRAEDTAVYYCTPASTMITTGWFAYWGQGTLVTVSS
VL: EIVMTQTPLSLAVTPGELATISCRASQNISVYLHWYLQKPGQTPRVLIKYVSQSISGVSDRFSGSGSGSDFTLKISRVEAEDVGVYYCQNGHSFPYTFGQGTKLEIKR
In the case of B5, in assay [1], the pSTAT IC50 (µg/mL) was 9.4 µg/mL. In assay [2], the Kd stood at 17.2 nM, the koff stood at 0.0013 s⁻¹ and the association rate constant (kon) came out at 75600 M⁻¹ s⁻¹.

B6: B2-H2K1-canIgGB (antibody, V domains shown)
VH: B5 VH with Q46E, L48V, T80M
VL: B5 VL
As for B6, the pSTAT IC50 (µg/mL) in assay [1] stood at 8.3 µg/mL. In assay [2], the Kd was 10 nM, the koff is 0.000942 s⁻¹ and the kon came out at 93800 M⁻¹ s⁻¹.

B7: B2-H3K1-canIgGB (antibody, V domains shown)
VH: B5 VH with L48V
VL: B5 VL
Turning to B7, the pSTAT IC50 (µg/mL) in assay [1] was 8.5 µg/mL. Moreover, in assay [2], the Kd turned out to be 10.2 nM, the koff was found to be 0.00114 s⁻¹ and the kon was 112000 M⁻¹ s⁻¹.

B8: B2-H2K3-canIgGB (antibody, V domains shown)
VH: B5 VH with Q46E, L48V, T80M
VL: B5 VL with A12S, T14S, L37Q, T43A, R45K, S59P, D60S, K74T, R77S
On to B8, for which the pSTAT IC50 (µg/mL) in assay [1] worked out at 7.1 µg/mL. For the same molecule, in assay [2], the Kd was 1.53 nM, the koff turned out to be 0.000143 s⁻¹ and the kon is 93500 M⁻¹ s⁻¹.

B9: B2-H3K2-canIgGB (antibody, V domains shown)
VH: B5 VH with L48V
VL: DIVMTQTPLSLSVSPGETASISCRASQNISVYLHWYRQKPGQSPQVLIKYVSQSISGVPDRFSGSGSGSDFTLRISRVEADDTGVYYCQNGHSFPYTFGQGTKLEIKR
Take B9: the pSTAT IC50 (µg/mL) in assay [1] stood at 7.2 µg/mL. In addition, in assay [2], the Kd is 1.76 nM, the koff is 0.000188 s⁻¹ and the kon came out at 107000 M⁻¹ s⁻¹.

B10: B2-H1K2-canIgGB (antibody, V domains shown)
VH: B5 VH
VL: B9 VL
For the molecule B10, the pSTAT IC50 (µg/mL) in assay [1] was determined as 9.2 µg/mL. Moreover, in assay [2], the Kd was 13.8 nM, the koff was found to be 0.00115 s⁻¹ and the on-rate constant (kon) turned out to be 82800 M⁻¹ s⁻¹.

B11: B2-H1K3-canIgGB (antibody, V domains shown)
VH: B5 VH
VL: B5 VL with A12S, T14S, L37Q, T43A, R45K, S59P, D60S, K74T, R77S
In the case of B11, the pSTAT IC50 (µg/mL) in assay [1] was 9.3 µg/mL. Besides, in assay [2], the Kd is 16.7 nM, the koff was 0.0015 s⁻¹ and the on-rate constant (kon) was 89800 M⁻¹ s⁻¹.

B12: B2-H2K2-canIgGB (antibody, V domains shown)
VH: B5 VH with Q46E, L48V, T80M
VL: B9 VL
On to B12, for which the pSTAT IC50 (µg/mL) in assay [1] was found to be 7.8 µg/mL. For the same molecule, in assay [2], the Kd turned out to be 9.17 nM, the dissociation rate constant (koff) was 0.000882 s⁻¹ and the on-rate constant (kon) amounted to 96200 M⁻¹ s⁻¹.

B13: B2-mHvKv-canIgGB (antibody, V domains shown)
VH: EVKLVESGGGLVQPGGSMKLSCAASGFTFSDAWMDWVRQSPERGLEWVAEIRSRAESHATYYAESVKGRFTISRDDSKGSVYLQMNSLGTEDTGIYYCTPASTMITTGWFAYWGQGTMVTVSS
VL: NIVMTQSPAILSVTPGDRVSLSCRASQNISVYLHWYQQKSHDSPRVLIKYVSQSISGIPSRFSGSGSGSDFTLRINSVEPEDVGVYYCQNGHSFPYTFGGGTKLEIKR
As for B13, in assay [1], the pSTAT IC50 (µg/mL) stood at 6.8 µg/mL. Besides, in assay [2], the dissociation constant Kd is 3.04 nM, the koff stood at 0.000243 s⁻¹ and the kon came out at 79900 M⁻¹ s⁻¹.

B14: 7475-H1K1-canIgGB (antibody, V domains shown)
VH: EVQLVESGGDLVKPGGSLRLSCVASGFTFSSYAMSWVRQAPGKGLQWVAYISNGGDYIFYADTVKGRFTISRDNARNTLYLQMNSLRSEDTAVYYCTRRGHYNTSSYWYFDVWGQGTLVTVSS
VL: EIVMTQSPASLSLSQEEKVTITCKASENVGTYVSWYQQKPGQAPKLLIYGASNRYTGVPSRFSGSGSGTDFTFTISSLEPEDVAVYYCGQSYSYPPTFGAGTKVELKR
For the molecule B14, the pSTAT IC50 (µg/mL) in assay [1] is 8.4 µg/mL. Besides, in assay [2], the Kd turned out to be 6.73 nM, the off-rate (koff) stood at 0.00156 s⁻¹ and the kon was 231000 M⁻¹ s⁻¹.

B15: 7475-H1K3-canIgGB (antibody, V domains shown)
VH: B14 VH
VL: B14 VL with T72S
For the molecule B15, in assay [1], the pSTAT IC50 (µg/mL) amounted to 8.2 µg/mL. Also, in assay [2], the Kd is 6.51 nM, the koff amounted to 0.00192 s⁻¹ and the association rate constant (kon) came out at 295000 M⁻¹ s⁻¹.

B16: 7475-H2K2-canIgGB (antibody, V domains shown)
VH: B14 VH with V37I, R76K, S88A
VL: B14 VL with G68A, F73L, L78V
Consider B16, for which the pSTAT IC50 (µg/mL) in assay [1] was 7.1 µg/mL. Besides, in assay [2], the dissociation constant (Kd) is 3.61 nM, the dissociation rate constant (koff) turned out to be 0.000481 s⁻¹ and the on-rate (kon) turned out to be 133000 M⁻¹ s⁻¹.

B17: 7475-H2K1-canIgGB (antibody, V domains shown)
VH: B14 VH with V37I, R76K, S88A
VL: B14 VL
On to B17, for which the pSTAT IC50 (µg/mL) in assay [1] turned out to be 7.9 µg/mL. In addition, in assay [2], the Kd came out at 5.43 nM, the koff turned out to be 0.00055 s⁻¹ and the association rate constant (kon) is 101000 M⁻¹ s⁻¹.

B18: 7475-H3K3-canIgGB (antibody, V domains shown)
VH: B14 VH with Y50R, R76K, S88A, V93M
VL: B14 VL with T72S
With B18, the pSTAT IC50 (µg/mL) in assay [1] stood at 6.9 µg/mL. Also, in assay [2], the equilibrium dissociation constant (Kd) stood at 3.34 nM, the koff was determined as 0.00204 s⁻¹ and the on-rate constant (kon) was 611000 M⁻¹ s⁻¹.

B19: 7475-H3K2-canIgGB (antibody, V domains shown)
VH: B14 VH with Y50R, R76K, S88A, V93M
VL: B14 VL with G68A, F73L, L78V
On to B19, for which, in assay [1], the pSTAT IC50 (µg/mL) came to 7.8 µg/mL. In addition, in assay [2], the equilibrium dissociation constant (Kd) was found to be 5.4 nM, the koff amounted to 0.000539 s⁻¹ and the on-rate constant (kon) is 100000 M⁻¹ s⁻¹.

B20: 7475-H2K3-canIgGB (antibody, V domains shown)
VH: B14 VH with V37I, R76K, S88A
VL: B14 VL with T72S
For B20, in assay [1], the pSTAT IC50 (µg/mL) turned out to be 7.2 µg/mL. For the same molecule, in assay [2], the Kd was found to be 4.67 nM, the koff amounted to 0.000759 s⁻¹ and the kon is 162000 M⁻¹ s⁻¹.

B21: 7475-H1K2-canIgGB (antibody, V domains shown)
VH: B14 VH
VL: B14 VL with G68A, F73L, L78V
As for B21, in assay [1], the pSTAT IC50 (µg/mL) stood at 8.1 µg/mL. In assay [2], the Kd was found to be 6.37 nM, the koff came out at 0.000614 s⁻¹ and the kon is 96500 M⁻¹ s⁻¹.

B22: 7475-H3K1-canIgGB (antibody, V domains shown)
VH: B14 VH with Y50R, R76K, S88A, V93M
VL: B14 VL
Take B22: the pSTAT IC50 (µg/mL) in assay [1] is 7.5 µg/mL. Besides, in assay [2], the dissociation constant Kd was 4.84 nM, the koff is 0.000542 s⁻¹ and the on-rate constant (kon) is 112000 M⁻¹ s⁻¹.
